# Data: article PMC8131916
# What was measured:
# [1] = biological target: MM_0014, cis-prenyltransferase from Methanosarcina mazei (tag-free) (Methanosarcina mazei); assay: crystal structure; substrate-free MM_0014, hanging drop, Index No. 64 reagent with glycerol 3:1, 25 °C; space group C222_(1), two protein molecules per asymmetric unit; the same crystals soaked with IPP or DMAPP
# [2] = biological target: MM_0014, cis-prenyltransferase from Methanosarcina mazei (tag-free) (Methanosarcina mazei); assay: crystal structure; MM_0014 cocrystallised with FPP and MgCl2 (co-FG), Index No. 89 reagent with glycerol 3:1, 20 °C; space group P2_(1)2_(1)2_(1), eight protein molecules per asymmetric unit; the same crystals soaked with DMAPP
substance,measurement,setting,value
"MM_0014, cis-prenyltransferase from Methanosarcina mazei (tag-free) (enzyme)",stoichiometry N,[1],2
same,stoichiometry N,[2],2
